For experiment [1], the target named is complex I from ndufs4-/- mouse (heart, kidney) (mouse) (UniProt Q91YT0). Nature of the experiment: cryo-EM structure; complex I purified whole from ndufs4-/- mouse heart, cross-linked twice with BS3 (0.25 mM during solubilisation, 2.5 mM before the grids), 0.05% DDM, PEGylated gold grids; focused classification into three classes.
A further experiment addresses T1, ACADVL (mouse), P50544.
T1 chain: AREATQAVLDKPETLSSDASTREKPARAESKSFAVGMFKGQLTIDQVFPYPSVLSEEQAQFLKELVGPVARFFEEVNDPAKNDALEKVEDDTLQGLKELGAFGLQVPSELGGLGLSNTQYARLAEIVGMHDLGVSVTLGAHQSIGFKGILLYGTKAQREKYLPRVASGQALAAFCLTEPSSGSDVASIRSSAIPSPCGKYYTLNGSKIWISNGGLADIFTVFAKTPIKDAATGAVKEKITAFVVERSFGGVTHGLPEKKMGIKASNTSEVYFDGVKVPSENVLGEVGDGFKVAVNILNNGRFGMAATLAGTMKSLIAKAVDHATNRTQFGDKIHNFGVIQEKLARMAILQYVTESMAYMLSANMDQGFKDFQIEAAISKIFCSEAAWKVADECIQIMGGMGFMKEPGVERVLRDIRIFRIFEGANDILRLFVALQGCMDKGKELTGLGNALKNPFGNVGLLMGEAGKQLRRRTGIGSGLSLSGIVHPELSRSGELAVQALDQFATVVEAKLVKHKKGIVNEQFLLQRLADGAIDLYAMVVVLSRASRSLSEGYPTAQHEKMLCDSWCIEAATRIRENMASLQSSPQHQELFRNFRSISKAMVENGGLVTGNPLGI
Described as above. The note with it: remark: other sources report otherwise.

Chain of UniProt Q91YT0 (Q91YT0 whole entry, looked up, one chain of several): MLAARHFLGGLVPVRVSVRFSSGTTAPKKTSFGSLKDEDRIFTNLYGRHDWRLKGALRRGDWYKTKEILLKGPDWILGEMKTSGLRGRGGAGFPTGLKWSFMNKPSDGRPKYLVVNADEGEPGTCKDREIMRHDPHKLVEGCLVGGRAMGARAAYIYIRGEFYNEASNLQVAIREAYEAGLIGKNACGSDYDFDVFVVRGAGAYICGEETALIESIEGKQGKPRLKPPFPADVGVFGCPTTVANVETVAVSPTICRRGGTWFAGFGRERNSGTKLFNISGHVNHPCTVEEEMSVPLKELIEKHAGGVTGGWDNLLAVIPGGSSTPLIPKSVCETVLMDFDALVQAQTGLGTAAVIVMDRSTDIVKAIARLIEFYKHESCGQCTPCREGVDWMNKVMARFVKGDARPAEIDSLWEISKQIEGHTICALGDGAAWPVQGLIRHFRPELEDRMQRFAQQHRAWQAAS

“assembly factor NDUFAF2 (natural protein)” yielded a percent of the complex I particles that contain it in experiment [1] of 14%.

B1: ACADVL, P50544 42-656 (natural protein)
chain: AREATQAVLDKPETLSSDASTREKPARAESKSFAVGMFKGQLTIDQVFPYPSVLSEEQAQFLKELVGPVARFFEEVNDPAKNDALEKVEDDTLQGLKELGAFGLQVPSELGGLGLSNTQYARLAEIVGMHDLGVSVTLGAHQSIGFKGILLYGTKAQREKYLPRVASGQALAAFCLTEPSSGSDVASIRSSAIPSPCGKYYTLNGSKIWISNGGLADIFTVFAKTPIKDAATGAVKEKITAFVVERSFGGVTHGLPEKKMGIKASNTSEVYFDGVKVPSENVLGEVGDGFKVAVNILNNGRFGMAATLAGTMKSLIAKAVDHATNRTQFGDKIHNFGVIQEKLARMAILQYVTESMAYMLSANMDQGFKDFQIEAAISKIFCSEAAWKVADECIQIMGGMGFMKEPGVERVLRDIRIFRIFEGANDILRLFVALQGCMDKGKELTGLGNALKNPFGNVGLLMGEAGKQLRRRTGIGSGLSLSGIVHPELSRSGELAVQALDQFATVVEAKLVKHKKGIVNEQFLLQRLADGAIDLYAMVVVLSRASRSLSEGYPTAQHEKMLCDSWCIEAATRIRENMASLQSSPQHQELFRNFRSISKAMVENGGLVTGNPLGI
As usually defined, the stoichiometry N is a count of units in the complex or per binding partner. Regarding B1, the stoichiometry N with ACADVL (mouse), P50544 stood at 2.
